Results reported in article PMC4478348.

Target: LARP4B (UniProt Q92615 1-738)
Assay: EMSA

LARP4B, sequence (Q92615 whole entry): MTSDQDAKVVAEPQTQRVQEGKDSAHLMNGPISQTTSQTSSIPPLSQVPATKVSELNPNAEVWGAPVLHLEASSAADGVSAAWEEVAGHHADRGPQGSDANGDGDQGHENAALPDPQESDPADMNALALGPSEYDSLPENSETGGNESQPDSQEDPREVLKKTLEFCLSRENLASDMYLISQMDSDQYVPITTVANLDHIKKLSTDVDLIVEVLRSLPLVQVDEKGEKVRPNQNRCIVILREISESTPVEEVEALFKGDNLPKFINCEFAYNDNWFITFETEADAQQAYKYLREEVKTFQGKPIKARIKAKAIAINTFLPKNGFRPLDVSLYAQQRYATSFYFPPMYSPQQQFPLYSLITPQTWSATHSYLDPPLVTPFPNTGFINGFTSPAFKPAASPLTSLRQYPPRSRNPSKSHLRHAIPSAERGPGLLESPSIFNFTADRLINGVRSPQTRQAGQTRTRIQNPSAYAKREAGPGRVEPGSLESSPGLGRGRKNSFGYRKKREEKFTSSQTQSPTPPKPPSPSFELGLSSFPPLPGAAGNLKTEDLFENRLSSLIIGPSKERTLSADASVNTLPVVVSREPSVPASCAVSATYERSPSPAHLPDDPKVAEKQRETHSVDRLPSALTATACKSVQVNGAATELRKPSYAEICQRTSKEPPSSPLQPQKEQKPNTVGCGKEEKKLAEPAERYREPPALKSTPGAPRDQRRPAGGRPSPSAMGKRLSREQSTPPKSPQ

Binder	Kd	binding result
GUAGAGACUUCCGUCACGCUUGGUAGAGUUUAUUUUUUUGA (ssRNA) [CKB]	~200 nM	–
GUAGAGACUUCCGUCACGCUUGGUAGAGGA (ssRNA) [CKB del]	–	no binding
